This experiment deals with FUD, a 56-residue recombinant polypeptide based on the Functional Upstream Domain of the F1 adhesin of Streptococcus pyogenes (Streptococcus pyogenes). The experiment is described as follows: ELISA; competitive enzyme-linked assay: high binding plates coated overnight at 4°C with 10 µg/mL FN; 0.3 nM biotinylated FUD with increasing concentrations of soluble 70K proteins; binding relative to no competitor.

“70K I150/242A (Ile-to-Ala mutations in the IGD motifs of 3FNI and 5FNI) (domain or fragment)”: the fold decrease in ability to compete, against wildtype 70K worked out at 2 fold.
Consider “70K I480/572A (Ile-to-Ala mutations in the IGD motifs of 7FNI and 9FNI) (domain or fragment)”, for which the fold decrease in ability to compete, against wildtype 70K stood at 2 fold.
